Measurements from US6103692.

Target: endogenous Ras (COS cells)

EGF or PMA-stimulated activation of Raf kinase in COS cells: > 85%
Substance: Myc-Raf (84-87A) (from UniProt P04049) (enzyme)
